Source: paper PMC3708853

Tests used:
[1] = molecular target: CD47 on Jurkat T cells (human (endogenous in Jurkat)) (UniProt Q08722)
[2] = molecular target: wild-type CD47 re-expressed in CD47-deficient JinB8 T cells (UniProt Q08722)

Row | Substance | reduction of CD69 mRNA expression (real-time PCR) in Jurkat T cells activated by anti-CD3 antibody for 2 hours, BAD-1 10 µg/ml; no block in CD47-deficient JinB8 T cells [1] [%] | inhibition of CD69 induction (mRNA, real-time PCR) in anti-CD3-activated JinB8 cells transfected with wild-type CD47 [2] [%] | reduction of CD69 mRNA expression (real-time PCR) in Jurkat T cells activated by anti-CD3 antibody for 2 hours, TSP-1 10 µg/ml; no inhibition in CD47-deficient JinB8 T cells [1] [%]
1 | Blastomyces adhesin-1 (BAD-1), native protein purified from B. dermatitidis yeast (natural protein) | 65 | 34.9 | –
2 | recombinant thrombospondin-1 (TSP-1) (from UniProt P07996 19-1170) (natural protein) | – | 35.1 | 45
